Results on one substance are retold here after patent publication US20250230234A1.

Assay [1] deals with human GPRC5D (full length, on cells) (human) (UniProt Q9NZD1). The assay can be described thus: flow cytometry on FreeStyle 293-F cells expressing hGPRC5D; negative control. (Flow cytometry measures light scatter and fluorescence of single cells or particles in a stream.)
The target of assay [2] is human GPRC5D-human GPRC5A chimera (Nterm) (human) (UniProt Q9NZD1). Put plainly: flow cytometry on FreeStyle 293-F cells expressing the chimera (Nter); negative control.
The target in assay [3] is human GPRC5D-human GPRC5A chimera (85-93) (human) (UniProt Q9NZD1). The assay can be described thus: flow cytometry on FreeStyle 293-F cells expressing the chimera (aa85-aa93); negative control.
Assay [4] has as its target human GPRC5D-human GPRC5A chimera (145-167) (human) (UniProt Q9NZD1). Put plainly: flow cytometry on FreeStyle 293-F cells expressing the chimera (aa145-aa167); negative control.
Assay [5] addresses human GPRC5D-human GPRC5A chimera (226-239) (human) (UniProt Q9NZD1). Put plainly: flow cytometry on FreeStyle 293-F cells expressing the chimera (aa226-aa239); negative control.

human GPRC5D-human GPRC5A chimera (85-93) (human), sequence (Q9NZD1 other isoform, or with tags, fused parts or gaps mutant): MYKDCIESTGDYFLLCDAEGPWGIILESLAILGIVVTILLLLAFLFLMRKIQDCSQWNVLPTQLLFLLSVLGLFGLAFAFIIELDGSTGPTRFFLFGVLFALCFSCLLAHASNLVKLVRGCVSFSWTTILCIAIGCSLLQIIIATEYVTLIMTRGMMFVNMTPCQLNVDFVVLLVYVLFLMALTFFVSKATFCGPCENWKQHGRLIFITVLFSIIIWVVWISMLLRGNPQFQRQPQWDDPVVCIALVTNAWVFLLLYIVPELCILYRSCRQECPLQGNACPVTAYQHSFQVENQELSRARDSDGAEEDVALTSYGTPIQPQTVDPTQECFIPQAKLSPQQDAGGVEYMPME
human GPRC5D-human GPRC5A chimera (145-167) (human), sequence (Q9NZD1 other isoform, or with tags, fused parts or gaps mutant): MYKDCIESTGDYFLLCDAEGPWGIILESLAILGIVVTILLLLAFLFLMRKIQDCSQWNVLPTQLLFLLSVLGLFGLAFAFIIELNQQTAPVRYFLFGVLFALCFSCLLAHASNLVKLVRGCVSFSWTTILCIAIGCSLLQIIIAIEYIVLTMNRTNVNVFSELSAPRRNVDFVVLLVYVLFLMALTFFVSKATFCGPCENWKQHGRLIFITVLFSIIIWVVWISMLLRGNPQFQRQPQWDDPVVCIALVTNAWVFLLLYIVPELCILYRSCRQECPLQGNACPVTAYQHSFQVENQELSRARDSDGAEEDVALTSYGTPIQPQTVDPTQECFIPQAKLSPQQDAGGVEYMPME
human GPRC5D (full length, on cells) (human), sequence (Q9NZD1 whole entry): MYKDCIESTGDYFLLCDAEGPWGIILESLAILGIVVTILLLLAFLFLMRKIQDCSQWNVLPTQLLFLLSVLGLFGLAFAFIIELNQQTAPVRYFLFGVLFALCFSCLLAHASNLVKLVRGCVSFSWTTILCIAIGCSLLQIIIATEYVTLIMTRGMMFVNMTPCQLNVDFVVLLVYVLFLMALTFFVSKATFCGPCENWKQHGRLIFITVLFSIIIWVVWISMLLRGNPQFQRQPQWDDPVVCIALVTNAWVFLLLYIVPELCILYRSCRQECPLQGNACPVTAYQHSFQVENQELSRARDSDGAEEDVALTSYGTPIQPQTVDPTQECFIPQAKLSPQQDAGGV
human GPRC5D-human GPRC5A chimera (226-239) (human), sequence (Q9NZD1 other isoform, or with tags, fused parts or gaps mutant): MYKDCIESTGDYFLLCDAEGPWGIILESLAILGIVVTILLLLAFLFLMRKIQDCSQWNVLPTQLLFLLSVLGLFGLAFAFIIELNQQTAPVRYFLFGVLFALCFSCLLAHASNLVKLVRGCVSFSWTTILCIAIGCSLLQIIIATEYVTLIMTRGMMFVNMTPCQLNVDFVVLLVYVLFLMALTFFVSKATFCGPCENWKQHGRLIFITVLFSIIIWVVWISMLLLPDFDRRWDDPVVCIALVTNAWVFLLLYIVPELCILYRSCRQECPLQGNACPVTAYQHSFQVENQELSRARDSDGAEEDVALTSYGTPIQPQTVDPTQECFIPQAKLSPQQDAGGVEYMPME
human GPRC5D-human GPRC5A chimera (Nterm) (human), sequence (Q9NZD1 other isoform, or with tags, fused parts or gaps mutant): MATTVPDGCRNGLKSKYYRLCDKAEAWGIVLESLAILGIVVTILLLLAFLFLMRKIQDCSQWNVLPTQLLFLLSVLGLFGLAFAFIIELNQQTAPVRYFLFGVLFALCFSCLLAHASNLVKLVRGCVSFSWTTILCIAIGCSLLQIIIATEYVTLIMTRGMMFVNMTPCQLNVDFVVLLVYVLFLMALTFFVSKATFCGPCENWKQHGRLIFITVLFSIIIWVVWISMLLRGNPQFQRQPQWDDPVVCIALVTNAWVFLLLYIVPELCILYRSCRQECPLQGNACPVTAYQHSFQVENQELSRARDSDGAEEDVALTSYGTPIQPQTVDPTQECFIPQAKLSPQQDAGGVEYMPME

On to “Isotype control IgG1 in wildtype format (antibody to an irrelevant small molecule target)”, for which the MFI in assay [1] was 27400; in assay [2] it was 24700; in assay [3], 29700; in assay [4], 32500; in assay [5], 29800.
